In US20030003461 one finds Kd data, which are given here for 4 sequences.

This series addresses TGFβ1 (Homo sapiens) (UniProt P01137). The experiment in a line: filter. The note with it: 2'-F pyrimidines, 3' fixed sequence removed.

Sequence of TGFβ1 (Homo sapiens) (P01137 279-390): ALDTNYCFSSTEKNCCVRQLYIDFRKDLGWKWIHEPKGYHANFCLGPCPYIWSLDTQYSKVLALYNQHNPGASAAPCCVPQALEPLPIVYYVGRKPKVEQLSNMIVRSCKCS

With “GGGAGAGGGGUCUGGAAUUUUUGGNUUACCCGUACGCCAGACGACUCGCCCGA [30NtruNc 9]”, where the note is “plateau 20%”, the Kd – broadly, the concentration at which binding is half-saturated – turned out to be 0.1 nM.

Consider “GGGAGANCUGGUAAUUUUGGUUUANCCGUAUNCCCAGACGACUCGCCCGA [30NtruNc 32]”, for which, for the setting “plateau 15%”, the Kd is 22 nM.

Turning to “GGGAGCGGAAUUUUUGUGUAGACGUAUGCCGCUUUGNCCAGACGACUCGCCCGA [30NtruNc 37]”, the Kd (plateau 15%) is 0.083 nM. This Kd is about 270-fold lower than that of the sequence before.

Under “plateau 25%”, “GGGAGGGUUAACCGUUAAGACGGCGUNAUUUUGUCCCCAGACGACUCGCCCGA [30NtruNc 7]” had a Kd of 2 nM.
